Reference: article doi:10.1101/2025.08.25.672233

Target: soluble mouse MXRA8-Fc (UniProt Q9DBV4)
Settings: read off a plot; for other: 1/IC50: mean of three biological replicates, parent: est. 2.6; for screen value: parent: est. 0

Sequence of UniProt Q9DBV4 (Q9DBV4 22-336): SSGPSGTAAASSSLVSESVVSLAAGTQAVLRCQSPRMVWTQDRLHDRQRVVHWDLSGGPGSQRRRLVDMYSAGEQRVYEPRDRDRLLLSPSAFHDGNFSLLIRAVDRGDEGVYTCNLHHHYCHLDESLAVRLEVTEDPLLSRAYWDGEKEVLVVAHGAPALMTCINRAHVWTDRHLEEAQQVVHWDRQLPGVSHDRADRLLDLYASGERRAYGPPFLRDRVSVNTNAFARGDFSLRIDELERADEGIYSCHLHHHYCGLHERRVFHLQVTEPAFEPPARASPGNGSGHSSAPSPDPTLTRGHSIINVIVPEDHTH

Row | Substance | other: 1/IC50 | screen value
1 | CHIKV envelope proteins (E3-E2-6K-E1) from the 181/25 strain, unmutated, on pseudovirus E1:D158R | 15 | 1.9
2 | CHIKV envelope proteins (E3-E2-6K-E1) from the 181/25 strain, unmutated, on pseudovirus E1:K132N | 0.3 | -2.6
3 | CHIKV envelope proteins (E3-E2-6K-E1) from the 181/25 strain, unmutated, on pseudovirus E1:K157C | 0.71 | -1.7
4 | CHIKV envelope proteins (E3-E2-6K-E1) from the 181/25 strain, unmutated, on pseudovirus E2:A157S | 9.4 | 0.85
5 | CHIKV envelope proteins (E3-E2-6K-E1) from the 181/25 strain, unmutated, on pseudovirus E2:E24Y | 1.1 | 1.9
6 | CHIKV envelope proteins (E3-E2-6K-E1) from the 181/25 strain, unmutated, on pseudovirus E2:H18A | 3.2 | 1.6
7 | CHIKV envelope proteins (E3-E2-6K-E1) from the 181/25 strain, unmutated, on pseudovirus E2:I121E | 0.05 | -3.1
8 | CHIKV envelope proteins (E3-E2-6K-E1) from the 181/25 strain, unmutated, on pseudovirus E2:K120D | 0.17 | -2.5
9 | CHIKV envelope proteins (E3-E2-6K-E1) from the 181/25 strain, unmutated, on pseudovirus E2:K189Y | 140 | 2.4
10 | CHIKV envelope proteins (E3-E2-6K-E1) from the 181/25 strain, unmutated, on pseudovirus E2:Q158T | 2.1 | -0.15
11 | CHIKV envelope proteins (E3-E2-6K-E1) from the 181/25 strain, unmutated, on pseudovirus E2:R119K | 0.05 | -3.5
12 | CHIKV envelope proteins (E3-E2-6K-E1) from the 181/25 strain, unmutated, on pseudovirus E2:R178S | 1 | -2.3
